Test results published in IntAct's records for PubMed 21107322.

B1: G2/mitotic-specific cyclin cdc13 (Schizosaccharomyces pombe (strain ATCC 38366 / 972)), P10815 (parent)
chain: MTTRRLTRQHLLANTLGNNDENHPSNHIARAKSSLHSSENSLVNGKKATVSSTNVPKKRHALDDVSNFHNKEGVPLASKNTNVRHTTASVSTRRALEEKSIIPATDDEPASKKRRQPSVFNSSVPSLPQHLSTKSHSVSTHGVDAFHKDQATIPKKLKKDVDERVVSKDIPKLHRDSVESPESQDWDDLDAEDWADPLMVSEYVVDIFEYLNELEIETMPSPTYMDRQKELAWKMRGILTDWLIEVHSRFRLLPETLFLAVNIIDRFLSLRVCSLNKLQLVGIAALFIASKYEEVMCPSVQNFVYMADGGYDEEEILQAERYILRVLEFNLAYPNPMNFLRRISKADFYDIQTRTVAKYLVEIGLLDHKLLPYPPSQQCAAAMYLAREMLGRGPWNRNLVHYSGYEEYQLISVVKKMINYLQKPVQHEAFFKKYASKKFMKASLFVRDWIKKNSIPLGDDADEDYTFHKQKRIQHDMKDEEW
partner: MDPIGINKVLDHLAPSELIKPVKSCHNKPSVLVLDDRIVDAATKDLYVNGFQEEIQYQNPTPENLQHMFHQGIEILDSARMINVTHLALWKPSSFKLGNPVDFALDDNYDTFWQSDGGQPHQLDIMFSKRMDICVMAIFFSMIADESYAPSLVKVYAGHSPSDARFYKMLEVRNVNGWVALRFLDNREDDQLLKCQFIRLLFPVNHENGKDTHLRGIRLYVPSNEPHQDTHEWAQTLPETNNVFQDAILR

Variants of: B1
Conditions: with apc10_yeast DOC1, P53068

Row | effect of a mutation on the interaction | Variant
1 | decreasing interaction | R59A;L62A;V65A;N67A
